These results are taken from paper PMC7948952, “Structural basis for multifunctional roles of human Ints3 C-terminal domain” (The Journal of Biological Chemistry, 2020).

The target of this data set is Ints3-555-976 R788E/K789E (human, UniProt Q68E01-2 555-976, R788E;K789E). In words: EMSA; not reduced vs WT (WT itself weak); up to 200 uM; 20 mM Hepes pH 7.4, 100 mM NaCl, 1 mM MgCl2, 1 mg/ml BSA, 2 mM DTT, 5% glycerol; on ice 30 min; 7.5 nM probe; native 5% PAGE in 1X TBE. The conditions noted are these: protein: recombinant; chain copies: 2; label: 5' 32P; single strand. A general note: Mobility shift assays separate free from complexed probe on a gel.
Sequence of Ints3-555-976 R788E/K789E (Q68E01 556-977 R789E/K790E): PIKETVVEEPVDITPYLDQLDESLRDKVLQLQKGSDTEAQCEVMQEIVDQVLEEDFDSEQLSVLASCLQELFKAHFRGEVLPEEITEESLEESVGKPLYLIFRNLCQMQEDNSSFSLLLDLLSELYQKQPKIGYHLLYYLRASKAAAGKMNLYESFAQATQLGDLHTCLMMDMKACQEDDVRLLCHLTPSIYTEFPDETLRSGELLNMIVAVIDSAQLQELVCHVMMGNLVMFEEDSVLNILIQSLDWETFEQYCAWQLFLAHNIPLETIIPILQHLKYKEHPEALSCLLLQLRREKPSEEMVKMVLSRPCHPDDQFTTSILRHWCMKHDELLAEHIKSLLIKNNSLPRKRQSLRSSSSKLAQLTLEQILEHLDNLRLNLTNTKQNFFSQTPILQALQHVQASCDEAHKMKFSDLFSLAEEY

Regarding TTTTTTTTTTTTTTTTTTTTTTTTTTTTTT (ssDNA) [dT30], the binding result was “binds”.
